Experimental data as given in US11918645B2, “Vaccines against hepatitis B virus” (priority 2012, dated 2024).

Legend:
[1] = tested on: HLA-DR1 (α1*01:01;β1*01:01); experiment: ProImmune REVEAL MHC class II binding assay of long peptides; parameters: species or system human; conditions: percentage of the signal of the positive control peptide; positive binding score >=15%
Source text: (§1) The highly frequent HLA class II alleles HLA-DR1 (α1*01:01;β1*01:01), HLA-DR15 (α1*01:01;β1*15:01), HLA-DR3 (α1*01:01;β1*03:01), HLA-DR4 (α1*01:01;β1*04:01), HLA-DR11 (α1*01:01;β1*11:01), HLA-DR13 (α1*01:01;β1*13:01), and HLA-DR7 (α1*01:01;β1*07:01) were selected. Each peptide was given a score relative to the positive control peptide, which is a known T-cell epitope. The score of the test peptide is reported quantitatively as a percentage of the signal generated by the positive control peptide, and the peptide is indicated as having a putative pass or fail result. Good binders are considered to be those peptides with scores >=15% of the positive control as defined by Proimmune.

[2] = tested on: HLA-DR3 (α1*01:01;β1*03:0); experiment: as above; parameters: species or system human; conditions: percentage of the signal of the positive control peptide; positive binding score >=15%
Source text: as §1

[3] = tested on: HLA class II alleles; experiment: ProImmune REVEAL MHC class II binding assay, summary over the seven alleles; parameters: species or system human; conditions: number of class II alleles for which positive binding (score >=15%) was detected
Source text: as §1

[4] = target: T1, HLA-DR7 (α1*01:01;β1*07:01) (Homo sapiens, UniProt P01903+P01911, A100R/A102G/A103Q/D57E/D86V/E43K/F76Y/K127E/L162R/M171V/P40G/Q125H/Q99D/R195Q/R33Q/R42Y/R54Q/S133A/S149N/S66F/T210M/V115G/Y107V/Y59L/Y89S); experiment: ProImmune REVEAL MHC class II binding assay of long peptides; conditions: percentage of the signal of the positive control peptide; positive binding score >=15%
T1 construct: purchased ProImmune
Source text: as §1

[5] = target: T2, HLA-DR15 (α1*01:01;β1*15:01) (Homo sapiens, UniProt P01903+P01911); experiment: as above; conditions: percentage of the signal of the positive control peptide; positive binding score >=15%
T2 construct: purchased ProImmune
Source text: as §1

[6] = target: HLA-B*3501 (Homo sapiens, UniProt P01889, A329T/A93T/A95T/C349S/D201E/D98Y/E176V/E187L/E204Q/E69T/I218V/K202T/L119I/Q94N/R155S/R180L/S121R/S35A/S48A/T118I/V127L/V306I/V36M/Y140S/Y91F); experiment: ProImmune REVEAL MHC class I binding assay of nonamers; conditions: score as % of positive control peptide
Source text: (§2) The number of HLA class I binding registers contained in each peptide may be determined by determining the ability of the peptide to bind to a range of frequently occurring HLA class I molecules. HLA class I binding may be measured using the ProImmune REVEAL® MHC-peptide Binding Assay (ProImmune Ltd, Oxford, UK). The REVEAL™ MHC peptide-binding assay measures the ability of each peptide to stabilize the ternary MHC-peptide complex for […], HLA-A*0201, HLA¬A*0301, HLA-A*2402, HLA-B*0702, HLA-B*0801, HLA-B*3501 representative of main HLA class I supertypes. Each tested peptide is given a score relative to a pass/fail control peptide and also compared to a positive control peptide.
(§3) Detection is based on the presence or absence of the native conformation of the MHC-peptide complex. The highly frequent HLA class I alleles (HLA-A*0201, A*0301, A*1101, A*2402, B*0702, B*0801, and B*3501) were selected. Binding to MHC molecules was compared to that of a known T-cell epitope, a positive control peptide, with very strong binding properties. […] The score of the test peptide is reported quantitatively as a percentage of the signal generated by the positive control peptide, and the peptide is indicated as having a putative pass or fail result. Good binders are considered to be those peptides with scores 45% of the positive control as defined by ProImmune.

[7] = target: T3, HLA-B*0702 (Homo sapiens, UniProt P01889); experiment: as above; conditions: score as % of positive control peptide
T3 construct: purchased ProImmune
Source text: as §2, §3

[8] = target: HLA-A*2402 (Homo sapiens, UniProt P04439, D101N/D140Y/D185E/E176V/E190D/F33S/G103R/G107R/I119L/I121M/I306V/K335N/L105A/L180Q/L300P/N151K/N90K/Q86E/Q94H/R106L/R138H/R89G/T104I/T345S/V100E/W191G/Y123F); experiment: as above; conditions: score as % of positive control peptide
Source text: as §2, §3

[9] = target: T4, HLA-A*1101 (Homo sapiens, UniProt P04439, A114D/D185E/E176A/F33Y/L180Q/S129P/T187R); experiment: as above; conditions: score as % of positive control peptide
T4 construct: purchased ProImmune
Source text: as §2, §3

[10] = target: HLA-B*0801 (Homo sapiens, UniProt P01889, A93T/A95T/D138N/E176V/E187T/K202T/Q94N/R180D/S35A/V36M/Y33D/Y91F); experiment: as above; conditions: score as % of positive control peptide
Source text: as §2, §3

[11] = target: HLA-A*0201 (Homo sapiens, UniProt P04439, D140Y/D185E/D98H/E176V/E277Q/G131W/G231S/I119V/I121R/I166T/I218V/L300P/L318F/N151K/N90K/P208A/P217A/Q86G/Q94H/R138H/R169H/T345S); experiment: as above; conditions: score as % of positive control peptide
Source text: as §2, §3

[12] = target: T5, HLA-A*0301 (Homo sapiens, UniProt P04439); experiment: as above; conditions: score as % of positive control peptide
T5 construct: purchased ProImmune
Source text: as §2, §3

[13] = target: T6, HLA-DR13 (α1*01:01;β1*13:01) (Homo sapiens, UniProt P01903+P01911, A100E/A169T/K41T/L162R/M171V/P40S/Q125H/Q178H/Q39Y/Q99D/R42S/S66N/W38E/Y61H); experiment: ProImmune REVEAL MHC class II binding assay of long peptides; conditions: percentage of the signal of the positive control peptide; positive binding score >=15%
T6 construct: purchased ProImmune
T6 sequence (P01903 26-216, other chains not shown): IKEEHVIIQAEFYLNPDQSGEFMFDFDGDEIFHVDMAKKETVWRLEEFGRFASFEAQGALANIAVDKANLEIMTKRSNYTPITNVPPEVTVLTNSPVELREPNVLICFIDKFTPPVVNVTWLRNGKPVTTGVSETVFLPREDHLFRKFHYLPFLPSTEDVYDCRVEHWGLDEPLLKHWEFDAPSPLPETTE
Source text: The highly frequent HLA class II alleles HLA-DR1 (α1*01:01;β1*01:01), HLA-DR15 (α1*01:01;β1*15:01), HLA-DR3 (α1*01:01;β1*03:01), HLA-DR4 (α1*01:01;β1*04:01), HLA-DR11 (α1*01:01;β1*11:01), HLA-DR13 (α1*01:01;β1*13:01), and HLA-DR7 (α1*01:01;β1*07:01) were selected. Each peptide was given a score relative to the positive control peptide, which is a known T-cell epitope.

[14] = tested on: HLA class I alleles; experiment: ProImmune REVEAL MHC class I binding assay, summary over the seven alleles; parameters: species or system human; conditions: for Number of allele (b): number of class I alleles for which positive binding was detected; for Number of HLA binders (a): total number binding epitopes detected for each long peptide, seven class I alleles
Source text: as §2, §3

[15] = tested on: BALB/c mice; experiment: Immunogenicity in mice, IFNγ ELISpot of splenocytes, FP02.1 vs NP02.1 (Example 6); type: in vivo; conditions: mice immunised with FP02.1 or NP02.1, restimulation 5 μg/mL/peptide, FIG. 15
Protocol: The immunogenicity in mice of FP02.1 (containing nine fluorocarbon-conjugated peptides) was compared to NP02.1 (containing nine equivalent unconjugated peptides).
Alternatively, splenocytes were stimulated in vitro with 5 μg/mL/peptide of nine individual peptides for 18 hours in an ELISpot assay. The number of IFNγ+ spot forming cells (SFC) was counted. Plates then were washed with PBS, incubated with an IFNγ detection peroxidase-labelled antibody, followed by a substrate, according to the manufacturer's instructions.

[16] = tested on: PBMC from chronic HBV-infected subjects; experiment: IFNγ ELISpot of PBMC restimulated with individual unconjugated HBV long peptides (Example 5); type: cell-based, human; conditions: for T cell responses (IFNγ ELISpot), level and frequency of responders: HBeAg-negative inactive carriers and HBeAg-negative treated subjects, 5 μg/mL, 18 h, FIGS. 9 and 10; for T cell responses (IFNγ ELISpot) grouped by infecting HBV genotype: genotypes A, B, C & D, FIG. 11; for T cell responses (IFNγ ELISpot) grouped by ethnic background: three ethnic groups, FIG. 12
Protocol: One vial of PBMC from each subject (containing 1×10^7 cells) was thawed and lymphocyte numbers were determined using a Scepter™ automated handheld cell counter. PBMC were cultured in 2 mL culture medium (CM: RPMI-1640 Glutamax supplemented with 5% human AB serum) in 24 well cell culture plates at a concentration of 1×10^6 cells/mL for a total of 11 days. Cells were stimulated with a mixture of the nine HBV-derived long peptides described in Example 3.
Each peptide was used at a final concentration of 1 μg/peptide/mL. On Day 4, IL-2 and IL-15 were added to the cultures to final concentrations of 10 IU/mL and 10 ng/mL respectively. On Day 10, cells were washed twice in CM and cultured with 10 IU/mL IL-2 for 1 additional day. On Day 11, cells were washed twice in CM, counted and incorporated in a human IFNγ (interferon-gamma) ELISpot assay or intracellular cytokine staining.
Cells from short term cultures were plated in triplicate wells at 5×10^4 PBMC/well. Final antigen concentrations used were: 5 μg/mL for each individual peptides; PHA positive control: 1 μg/mL.

| Substance | binding score, HLA-DR1 (α1*01:01;β1*01:01) [1] | binding score, HLA-DR3 (α1*01:01;β1*03:0) [2] | Number of allele (a) [3] | binding score, HLA-DR7 (α1*01:01;β1*07:01) [4] | binding score, HLA-DR15 (α1*01:01;β1*15:01) [5] | Number of nonamers having a binding score >= 45%, HLA-B*3501 [6] | Number of nonamers having a binding score >= 45%, HLA-B*0702 [7] | Number of nonamers having a binding score >= 45%, HLA-A*2402 [8] | Number of nonamers having a binding score >= 45%, HLA-A*1101 [9] | Number of nonamers having a binding score >= 45%, HLA-B*0801 [10] | Number of nonamers having a binding score >= 45%, HLA-A*0201 [11] | Number of nonamers having a binding score >= 45%, HLA-A*0301 [12] | binding score, HLA-DR13 (α1*01:01;β1*13:01) [13] | Number of allele (b) [14] | Number of HLA binders (a) [14] | IFNγ response of splenocytes to each individual peptide component [15] | IFNγ response of splenocytes to each individual peptide component ([15]; listed as P376) | T cell responses (IFNγ ELISpot), level and frequency of responders [16] | T cell responses (IFNγ ELISpot) grouped by infecting HBV genotype [16] | T cell responses (IFNγ ELISpot) grouped by ethnic background [16] |
| --- | --- | --- | --- | --- | --- | --- | --- | --- | --- | --- | --- | --- | --- | --- | --- | --- | --- | --- | --- | --- |
| NP277(K): unconjugated HBV long peptide, polymerase 260-293 + KKK (RVSWPKFAVPNLQSLTNLLSSNLSWLSLDVSAAFYHKKK; HBV CONSENSUS SEQUENCE) | 0.49% | 0.10% | 1 | 0.01% | 0.18% | 3 | 3 | 5 | 0 | 1 | 6 | 0 | 0.00% | 5 | 18 | – | – | – | – | – |
| NP376: unconjugated HBV long peptide, polymerase 359-398 (C to S substitution at 393) (KLHLYSHPIILGFRKIPMGVGLSPFLLAQFTSAISSVVRR; HBV CONSENSUS SEQUENCE) | 27.71% | 0.00% | – | – | 6.29% | 6 | 4 | 10 | 1 | 6 | 8 | 0 | 0.00% | 6 | 35 | immune responses were dominated by four out of the 9 peptides contained in the vaccine | only observed with the formulation containing the fluorocarbon-conjugated peptides | highest level of responses in both patient populations and in the highest proportion of subjects | highest responses across all four genotypes A, B, C & D | highest responses across all three ethnic groups |
| NP797(K): unconjugated HBV long peptide, core 780-814 (C to S at 792) + KKK | 0.20% | 0.00% | 0 | 0.01% | 1.14% | 2 | 4 | 5 | 1 | 3 | 6 | 1 | 0.00% | 7 | 22 | – | – | highest level of responses in both patient populations and in the highest proportion of subjects | highest responses across all four genotypes A, B, C & D | highest responses across all three ethnic groups |
